Data set [1] addresses T1, endogenous Omi protein precipitated from 293 cells with the anti-Omi polyclonal antibody.
T1 chain: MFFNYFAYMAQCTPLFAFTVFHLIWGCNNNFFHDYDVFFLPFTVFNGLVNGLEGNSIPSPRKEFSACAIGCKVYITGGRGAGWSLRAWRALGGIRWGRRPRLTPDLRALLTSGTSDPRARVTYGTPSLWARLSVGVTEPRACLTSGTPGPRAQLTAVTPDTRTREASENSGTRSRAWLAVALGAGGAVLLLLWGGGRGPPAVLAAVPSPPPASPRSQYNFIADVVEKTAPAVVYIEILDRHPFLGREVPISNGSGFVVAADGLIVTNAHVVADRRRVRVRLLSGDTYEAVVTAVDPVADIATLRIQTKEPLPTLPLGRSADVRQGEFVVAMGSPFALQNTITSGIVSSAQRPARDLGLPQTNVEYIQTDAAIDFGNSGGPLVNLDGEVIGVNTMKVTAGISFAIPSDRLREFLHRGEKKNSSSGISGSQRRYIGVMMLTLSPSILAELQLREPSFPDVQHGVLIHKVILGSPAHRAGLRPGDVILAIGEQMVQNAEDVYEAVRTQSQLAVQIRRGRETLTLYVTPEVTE

The target in data set [2] is His-Max made in bacteria, P61244.
Sequence of His-Max made in bacteria, P61244 (P61244 whole entry): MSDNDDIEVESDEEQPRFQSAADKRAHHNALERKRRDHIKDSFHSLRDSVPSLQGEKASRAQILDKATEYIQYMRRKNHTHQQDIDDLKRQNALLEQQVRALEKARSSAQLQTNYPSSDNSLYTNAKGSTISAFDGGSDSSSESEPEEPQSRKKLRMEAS

B1: Mxi2 as a hemaglutinin epitope-tagged fusion (Mxi2-HA), expressed in 293 cells (protein)
chain: MSQERPTFYRQELNKTIWEVPERYQNLSPVGSGAYGSVCAAFDTKTGLRVAVKKLSRPFQSIIHAKRTYRELRLLKHMKHENVIGLLDVFTPARSLEEFNDVYLVTHLMGADLNNIVKCQKLTDDHVQFLIYQILRGLKYIHSADIIHRDLKPSNLAVNEDCELKILDFGLARHTDDEMTGYVATRWYRAPEIMLNWMHYNQTVDIWSVGCIMAELLTGRTLFPGTDHIDQLKLILRLVGTPGAELLKKISSESARNYIQSLTQMPKMNFANVFIGANPLGKLTIYPHLMDIELVMI
Turning to B1, in data set [1], the “phosphorylation of Omi by isolated HA-Mxi2 (autoradiograph)” value is recorded as “The autoradiograph shows Omi as well as Max protein was phosphorylated”; the “phosphorylation of Omi in a kinase reaction on the immunoprecipitated Omi/Mxi2 complex ([gamma-32P]ATP, autoradiography)” value is reported as “Phosphorylated Omi is shown as a doublet of phosphorylated polypeptides with a molecular weight of 57-59 kD”; the “proteolytic activity of Omi (colorimetric assay, absorbance at 450 nm)” value is “the proteolytic activity of Omi increases dramatically when phosphorylated by Mxi2”. Further, in data set [2], the “phosphorylation of Max by isolated HA-Mxi2 (autoradiograph)” value is listed as “The autoradiograph shows Omi as well as Max protein was phosphorylated” and the “phosphorylation of Max in the same kinase reaction” value is reported as “Max was also phopshorylated very efficiently”.

For the origin of these results see US20030157685.
